The text below walks through data of patent US20170095575A1 (BIOMED VALLEY DISCOVERIES, published 2017).

Numbering of substitutions follows the chain as printed.

In experiment [1] the target is T1, mTEM8-Fc (UniProt Q9CZ52 31-319, limits assumed).
T1 construct: not shown: Fc part
T1 sequence (looked up): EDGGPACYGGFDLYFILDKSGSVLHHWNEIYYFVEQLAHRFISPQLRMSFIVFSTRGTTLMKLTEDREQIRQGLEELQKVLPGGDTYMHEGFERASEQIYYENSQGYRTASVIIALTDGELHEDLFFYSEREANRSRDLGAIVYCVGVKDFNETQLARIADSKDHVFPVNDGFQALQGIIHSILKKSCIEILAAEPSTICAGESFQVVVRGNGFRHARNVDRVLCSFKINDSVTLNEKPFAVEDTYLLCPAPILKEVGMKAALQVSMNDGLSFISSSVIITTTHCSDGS
Description: Biacore affinity measurement of Fab.

The target in experiment [2] is T2, hTEM8-AP (Homo sapiens, UniProt Q9H6X2 33-321).
T2 sequence: T1 sequence (looked up) with R40K, S104R, A241S
Description: Biacore affinity measurement of Fab.

B1: M830 anti-TEM8 fragment antigen-binding (Fab) (Fab, V domains shown)
VH: EVQLVESGGGVVQPGRSVRLSCAASGFTFSTYTMHWVRQAPGKGLEWVAIISNDGSNKYYADPVRGRFTISRDNSKNTLYLQMNSLRAEDTAVYYCVRGSSWYRGNWFDPWGQGTLVTVSS
VL: DIQMTQSPSSLSASVGDRVTIACRASQTISRYLNWYQQKPGKAPKLLIYAASSLQSGVSSRFSGSGSGTEFTLTISSLQPEDFATYFCQQTYSPPITFGQGTRLEIKR
notes: also called M830 Fab
B1: in experiment [1], the Kd (commonly the constant that tells how readily two partners part at equilibrium) came out at 3740 pM; the koff (as a rule, the first-order rate constant of dissociation) turned out to be 0.0029 s⁻¹; the kon – broadly, the rate constant with which the complex forms – was 775000 M⁻¹ s⁻¹. In experiment [2], this molecule displayed a dissociation constant (Kd) of 1570 pM, a koff of 0.000953 s⁻¹ and a kon of 607000 M⁻¹ s⁻¹.

B2: M825 anti-TEM8 fragment antigen-binding (Fab) (Fab, V domains shown)
VH: QVQLVQSGAEVKKPGTSVKVSCKVPGYTFSSYAISWVRQAPGQGLEWMGGIIPIFGTTNYAQKFQGRVTITGEESTSTVYMELSSLRSEDTAVYYCARDTDYMFDYWGQGTLVTVSS
VL: SSELTQDPVVSVALGETVSITCQGDNLRDFYASWYQQKPGQAPLLVMYGKNRRPSGIPDRFSGSTSGNTLSLTITGAQAEDEADYYCSSRDNSKHVVFGGGTKVTVL
notes: also called M825 Fab
Regarding B2, in experiment [1], the Kd turned out to be 52.6 pM, the koff stood at 8.94e-05 s⁻¹ and the kon worked out at 1.7e+06 M⁻¹ s⁻¹. In experiment [2], the Kd was 59.1 pM, the off-rate (koff) was 0.00018 s⁻¹ and the kon is 3.05e+06 M⁻¹ s⁻¹.
